Experimental findings from patent publication US20190071490A1 (BETH ISRAEL DEACONESS MEDICAL CENTER, published 2019) are described below.

Usually Kd stands for the constant that tells how readily two partners part at equilibrium. A low value points to tighter binding. By koff is commonly meant a measure of how fast the partners let go of each other. High values mean a short-lived complex, low ones a long-lived complex.

Residue numbers refer to the chain shown, from its start. In names and notes the source's numbering stands. Ends that are not written are not given here.

Sequences and labels used below:
T1: human α-CGRP 1-37 (WT) (human, C-terminal amide; N-terminal biotin when captured on the SA chip; 125I-labelled in the radioligand assay)
T1 construct: also called α-human
T1 peptide: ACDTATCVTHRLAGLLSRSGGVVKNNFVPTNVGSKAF

B1: human α-CGRP 19-37-COOH (peptide)
peptide: SGGVVKNNFVPTNVGSKAF-OH
notes: also called 19-37 (not amidated at the C-terminus)
B2: human α-CGRP 19-36 (peptide)
peptide: SGGVVKNNFVPTNVGSKA-OH
notes: also called 19-36-COOH; peptide fragment 19-36
B3: human α-CGRP 1-36-COOH (peptide)
peptide: ACDTATCVTHRLAGLLSRSGGVVKNNFVPTNVGSKA-OH
modifications: ends and bridges not checked
notes: also called 1-36 (not amidated at the C-terminus)
B4: rat α-CGRP (1-37) (peptide)
peptide: SCNTATCVTHRLAGLLSRSGGVVKDNFVPTNVGSEAF-NH2
modifications: ends and bridges not checked; also: N-terminal biotin when captured on the SA chip
notes: also called rat α (1-37); α-rat
B5: G1 variant M72 Fab (Fab, V domains shown)
VH: EVQLVESGGGLVQPGGSLRLSCAASGFTFSNYWISWVRQAPGKGLEWVAEIRSKSDASATHYAEAVKGRFTISRDNAKNSLYLQMNSLRAEDTAVYYCTVYFDYGLAIQNYWGQGTLVTVSS
VL: EIVLTQSPATLSLSPGERATLSCKASKNVGTYVSWYQQKPGQAPRLLIYGASNRYSGIPARFSGSGSGTDFTLTISSLEPEDFAVYYCSQSYNYPYTFGQGTKLEIK
notes: Fab; constant domains as m1
B6: G1 variant M77 Fab (Fab, V domains shown)
VH: B5 VH with A57D
VL: B5 VL with G30S, G50A, S56T
notes: Fab; constant domains as m1
B7: G1 variant M83 Fab (Fab, V domains shown)
VH: B5 VH with A57N, S58M, H61F
VL: B5 VL with G30V, A51H, S56T
notes: Fab; constant domains as m1
B8: G1 variant M73 Fab (Fab, V domains shown)
VH: B5 VH with A57N, S58Y, E64D
VL: B5 VL
notes: Fab; constant domains as m1
B9: G1 variant M74 Fab (Fab, V domains shown)
VH: B5 VH with A57S
VL: B5 VL
notes: Fab; constant domains as m1
B10: G1 variant M81 Fab (Fab, V domains shown)
VH: B5 VH with A57N, S58E
VL: B5 VL with G30S
notes: Fab; constant domains as m1
B11: G1 variant M76 Fab (Fab, V domains shown)
VH: B5 VH with K54E, A57G
VL: B5 VL with G30S, G50A, S56T
notes: Fab; constant domains as m1
B12: G1 variant M80 Fab (Fab, V domains shown)
VH: B5 VH with A57N, S58V
VL: B5 VL with G30S, S56I
notes: Fab; constant domains as m1; printed L561 read as L56I
B13: G1 variant M75 Fab (Fab, V domains shown)
VH: B5 VH with A57V
VL: B5 VL
notes: Fab; constant domains as m1
B14: G1 variant M82 Fab (Fab, V domains shown)
VH: B5 VH with K54E, A57N
VL: B5 VL with G30V, A51H, S56T
notes: Fab; constant domains as m1
B15: G1 variant M84 Fab (Fab, V domains shown)
VH: B5 VH with K54N, A57N
VL: B5 VL with G30V, A51H, S56T
notes: Fab; constant domains as m1
B16: G1 variant M78 Fab (Fab, V domains shown)
VH: B5 VH with A57N, S58T
VL: B5 VL with G30S, G50A, S56T
notes: Fab; constant domains as m1
B17: G1 variant M79 Fab (Fab, V domains shown)
VH: B5 VH with A57P
VL: B5 VL with G30S, G50A, S56T
notes: Fab; constant domains as m1
B18: Human adrenomedullin (1-52) (peptide)
peptide: YRQSMNNFQGLRSFGCRFGTCTVQKLAHQIYQFTDKDKDNVAPRSKISPQGY-NH2
modifications: ends and bridges not checked

The first assay has as its target antibody G1 Fab fragment. In words: Biacore competition: G1 Fab (50 nM) pre-incubated 1 h with 10 µM competing peptide, then flowed over N-biotinylated human α-CGRP on SA chip; percent of binding to chip-bound human α-CGRP blocked. The source says:
(§1) Y axis represents percentage of binding blocked by the presence of the competing peptide compared with the binding in the absence of the competing peptide.
(§2) All these peptides are amidated at the C-terminus.
In general terms: In SPR one partner is held on a chip, and binding of the other changes the refractive index at the surface.
Target sequence in this assay (VH, as listed by the source, chain 1 of 2): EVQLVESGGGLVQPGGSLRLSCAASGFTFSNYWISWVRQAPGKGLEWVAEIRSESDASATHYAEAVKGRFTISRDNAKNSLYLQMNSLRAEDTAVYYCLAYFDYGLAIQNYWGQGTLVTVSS
Target sequence in this assay (VL, as listed by the source, chain 2 of 2): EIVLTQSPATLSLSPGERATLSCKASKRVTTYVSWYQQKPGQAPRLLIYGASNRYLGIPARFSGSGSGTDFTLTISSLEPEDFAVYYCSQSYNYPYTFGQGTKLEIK
For B1, the “% Binding Blocked” value was determined as 83.3%.
Still for that read-out and setting: the value for SGGVVKNNFVATNVGSKAF-NH2 (the entry already carries P29A) [human α-CGRP P29A (19-37)] was 100%.
The same measure, in the same setting: to SGGVVKNNFVPTNVGSAAF-NH2 (also: N-terminal biotin when on the chip, the entry already carries K35A) [human α-CGRP K35A (19-37)] belongs 100%.
As to SGGVVKNNFVPTNVGSMAF-NH2 (also: N-terminal biotin when on the chip, the entry already carries K35M) [human α-CGRP K35M (19-37)], the “% Binding Blocked” value was 100%.
The same measure, in the same setting: the value for SGGVVKNNFVPTNVGSKAA-NH2 (the entry already carries F37A) [human α-CGRP F37A (19-37)] was 91.7%; that for SGGVVKNNFVPTNVGSEAF-NH2 (also: N-terminal biotin when on the chip, the entry already carries K35E) [human α-CGRP K35E (19-37)] was 100%.
Same read-out and setting: the value for B2 was 0.6%.
As for B3, the “% Binding Blocked” value is 40.6%.
On the same count and under the same terms, to B4 belongs 100%.

The target of the next assay is T1, human α-CGRP 1-37 (WT). Briefly: Biacore, 37°C, Fab over CGRP on SA chip. The essentials: (§3)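 Fab analyte flowed over N-biotinylated CGRP captured at low density on a streptavidin chip in HBS-EP (pH 7.4), 1-min injections at 100 μL/min, at least 10 min dissociation.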
B5 came in with an equilibrium dissociation constant (Kd) of 2.5 nM and a koff of 0.0004 s⁻¹.
The corresponding values for B6 are 2.98 nM and 0.000477 s⁻¹.
For the molecule B7, binding was put at a Kd of 5.83 nM and the off-rate constant (koff) was 0.000933 s⁻¹.
In turn, B8 registered a Kd of 1.59 nM and an off-rate constant (koff) of 0.000255 s⁻¹.
Regarding B9, the affinity, expressed as Kd, was 3.73 nM and the off-rate (koff) stood at 0.000597 s⁻¹.
Molecule B10 displayed a dissociation constant Kd of 3.06 nM and a dissociation rate constant (koff) of 0.00049 s⁻¹.
The corresponding values for B11 are 2.28 nM and 0.000364 s⁻¹.
In turn, B12 registered a dissociation constant (Kd) of 13.1 nM and an off-rate constant (koff) of 0.00209 s⁻¹.
The matching figures for B13: 7.25 nM and 0.00116 s⁻¹.
The matching figures for B14: 5.48 nM and 0.000877 s⁻¹.
The matching figures for B15: 6.75 nM and 0.00108 s⁻¹.
As to B16, the affinity, expressed as Kd, was 8.19 nM and the koff is 0.00131 s⁻¹.
The matching figures for B17: 8.06 nM and 0.00129 s⁻¹.

In the next assay the target is B4. Briefly: Biacore, 37°C, Fab over CGRP on SA chip. The essentials:
as §3
The molecule B5 came in with a Kd of 219 nM and a koff of 0.00395 s⁻¹.
The matching figures for B6: 794 nM and 0.0143 s⁻¹.
B7: the binding result was “no binding”.
B8 returned a Kd of 167 nM and a koff of 0.003 s⁻¹.
In turn, B9 displayed a dissociation constant Kd of 335 nM and a koff of 0.00603 s⁻¹.
The matching figures for B10: 238 nM and 0.00429 s⁻¹.
B11 came in with a dissociation constant (Kd) of 64.4 nM and a dissociation rate constant (koff) of 0.00116 s⁻¹.
The matching figures for B12: 5520 nM and 0.0993 s⁻¹.
B13: the Kd stood at 1040 nM and the koff came out at 0.0187 s⁻¹.
The matching figures for B14: 388 nM and 0.00699 s⁻¹.
The matching figures for B15: 978 nM and 0.0176 s⁻¹.
The corresponding values for B16 are 9280 nM and 0.167 s⁻¹.
B17 displayed a Kd of 10600 nM and a koff of 0.19 s⁻¹.

A further assay has as its target antibody G1 Fab fragment. Briefly: Biacore competition: G1 Fab (50 nM) pre-incubated with competing peptide, flowed over human α-CGRP on SA chip.
Source text: as §1, §2
In the case of ACDTATCVTHRLAGLLSRS-OH (ends and bridges not checked) [human α-CGRP 1-19-COOH], the binding result was “no binding (tested: 10 µM)”.
Regarding CGNLSTCMLGTYTQDFNKFHTFPQTAIGVGAP-NH2 (ends and bridges not checked) [Human calcitonin (1-32)], the binding result is “no binding (tested: 10 µM)”.
Same read-out and setting: to KCNTATCATQRLANFLVHSSNNFGAILSSTNVGSNTY-NH2 (ends and bridges not checked) [Human amylin (1-37)] belongs “no binding (tested: 10 µM)”; to B2, “no binding (tested: 10 µM)”; to B18, “no binding (tested: 10 µM)”.
Still for that read-out and setting: the value for ACDTATCVTHRLA-OH (ends and bridges not checked) [human α-CGRP 1-13-COOH] was “no binding (tested: 10 µM)”.

A further assay concerns the target antibody G1 Fab fragment. In words: Biacore competition: 50 nM G1 Fab with 10 µM peptide over human α-CGRP on chip.
Source text: as §1, §2
Target sequence in this assay (VH, as listed by the source, chain 1 of 2): as the sequence (VH, as listed by the source, chain 1 of 2) above
Target sequence in this assay (VL, as listed by the source, chain 2 of 2): as the sequence (VL, as listed by the source, chain 2 of 2) above
With SGGVVKNNFVATNVGSKAF-NH2 (the entry already carries P29A) [human α-CGRP P29A (19-37)], the “percentage of binding blocked” value was determined as 100%.
Same read-out and setting: the value for SGGVVKNNFVPTNVGSAAF-NH2 (also: N-terminal biotin when on the chip, the entry already carries K35A) [human α-CGRP K35A (19-37)] was 100%.
Still for that read-out and setting: the value for SGGVVKNNFVPTNVGSMAF-NH2 (also: N-terminal biotin when on the chip, the entry already carries K35M) [human α-CGRP K35M (19-37)] was 100%; that for SGGVVKNNFVPTNVGSEAF-NH2 (also: N-terminal biotin when on the chip, the entry already carries K35E) [human α-CGRP K35E (19-37)] was 100%.
Still for that read-out and setting: to B3 belongs roughly 40%; to B4, 100%.
